Experimental data published in patent US20100129800A1, “POLYMERS AND THEIR USE AS FLUORESCENT LABELS” (priority 2007, published 2010).
Ends that are not written are not given here. Nct = N-((2S,3R)-1,3-dihydroxybutan-2-yl)-(4a,10a-dihydro-10,11-diazabenzo[b]fluoren-10-yl)acetamide monomer; Qut = N-(1,3-dihydroxybutan-2-yl)-10H-indolo[3,2-d]quinoline-11-carboxamide monomer; Pht = N-((2S,3R)-1,3-dihydroxybutan-2-yl)-2-phenylquinoline-4-carboxamide monomer; Act = N-(1,3-dihydroxybutan-2-yl)acridine-9-carboxamide monomer; code p = not defined here; Agt = not defined here

Legend:
Type in all cases: physicochemical
[1] = Fluorescence properties of the new compounds (excitation and emission wavelengths); details: free compound
[2] = Fluorescent properties of duplexes carrying fluorophores at the 3′-end; details: oligonucleotide duplex carrying fluorophore at the 3′-end
Description: Solid supports carrying oligomers with L-threoninol and 3-aminopropan-1,2-diol backbones were introduced on a DNA synthesizer and oligonucleotides were assembled using standard protocols. After the assembly of the desired DNA sequence, supports were treated with concentrated ammonia at 55° C. for a minimum of 6 hrs yielding oligonucleotides carrying oligomers of fluorophores at the 3′-end.
Two oligonucleotide sequences were synthetized (sequence 1: 5′-[…]-3′ sequence 2: 5′-[…]-3′) carrying different fluorophores at the 3′-end. Solid supports containing dimer and trimer fluorophores (prepared in examples 28-31) and standard protocols for oligonucleotide synthesis were used in order to obtain these modified oligonucleotides (Table 2). Ammonia deprotection was performed at 55° C. for 6 hours. The resulting solutions were concentrated to dryness. Then, the residue was dissolved in water and desalted through a NAP-10 column. Fractions containing oligonucleotides were analysed by HPLC and characterized by UV and MS spectrometry.
Next, the fluorescent properties of duplexes carrying fluorophores at the 3′-end was determined and the results are shown in Table 3: […]

duplex structure of DNA = test: Melting experiments (DNA-duplex stabilization); details: 1 M NaCl, 10 mM sodium phosphate buffer of pH=7; for Tm(° C.): 260 nm, 1° C./min; for ΔTm (° C.): versus unmodified oligonucleotide
Description: Appropriate oligonucleotides were dissolved in a solution containing 1 M NaCl, 10 mM sodium phosphate buffer of pH=7. UV Absorption spectra and melting experiments (absorbance vs temperature) were recorded in 1-cm path length cell by using a spectrophotometer, with a temperature controller and a programmed temperature increase rate of 1° C./min. Melting curves were recorded at 260 nm, and melting temperatures were measured at the maximum of the first derivatives of the melting curves.

Row | Fluorescence Excitation (nm) [1] [nm] | Fluorescence emission (nm) [1] [nm] | Molecule | Emission (nm) [2] [nm] | Excitation (nm) [2] [nm] | Tm(° C.) (duplex structure of DNA) [°C] | ΔTm (° C.) (duplex structure of DNA)
1 | 272 | 503 | CC(=O)N1CC(NC(=O)CNC(=O)c2c3ccccc3nc3ccccc23)C[C@H]1C(=O)N1CC(NC(=O)CNC(=O)c2c3ccccc3nc3c2[nH]c2ccccc23)C[C@H]1C(=O)N1CC(NC(=O)CNC(=O)c2c3ccccc3nc3c2[nH]c2ccccc23)C[C@H]1C(N)=O (stereo partly shown) [Example 63, N^4-Acetyl-4-amino-{2-(acridine-9-carboxamide)acetyl}prolinyl-4-amino-{2-(10H-indolo[3,2-b]quinoline-11-carboxamide)acetyl}proliny-4-amino-{2-(10H-indolo[3,2-b]quinoline-11-carboxamide)acetyl}prolinamide] |  |  |  | 
2 | 347 | 488 | CC(=O)NC1CC(C(=O)NC2CC(C(=O)NC3CC(C(=O)NC4CC(C(=O)NC5CC(C(N)=O)N(C(=O)CNC(=O)c6cc(-c7ccccc7)nc7ccccc67)C5)N(C(C)=O)C4)N(C(=O)CNC(=O)c4c5ccccc5nc5ccccc45)C3)N(C(C)=O)C2)N(C(=O)CNC(=O)c2c3ccccc3nc3c2[nH]c2ccccc23)C1 (stereo not shown) [Example 64] |  |  |  | 
3 | 249 | 442 | CC(=O)NC1CC(C(=O)NC2CC(C(=O)NC3CC(C(=O)NC4CC(C(=O)NC5CC(C(N)=O)N(C(=O)CNC(=O)c6c7ccccc7nc7c6[nH]c6ccccc67)C5)N(C(C)=O)C4)N(C(=O)CNC(=O)c4cc(-c5ccccc5)nc5ccccc45)C3)N(C(C)=O)C2)N(C(=O)CNC(=O)c2c3ccccc3nc3ccccc23)C1 (stereo not shown) [Example 65, N^4-Acetyl-4-amino-{2-(acridine-9-carboxamide)acetyl}prolinyl-4-aminoprolinyl-4-amino-[(2-phenyl-quinoline-4-carboxamide)acetyl]prolinamide-4-aminoprolinyl-4-amino-{2-(10H-indolo[3,2-b]quinoline-11-carboxamide)acetyl}prolinamide] |  |  |  | 
4 | 269 | 432 | CC(=O)NC1CC(C(=O)NC2CC(C(=O)NC3CC(C(=O)NC4CC(C(=O)NC5CC(C(=O)NC6CC(C(=O)NC7CC(C(N)=O)N(C(=O)CNC(=O)c8cc(-c9ccccc9)nc9ccccc89)C7)N(C(C)=O)C6)N(C(C)=O)C5)N(C(=O)CNC(=O)c5c6ccccc6nc6ccccc56)C4)N(C(C)=O)C3)N(C(C)=O)C2)N(C(=O)CNC(=O)c2c3ccccc3nc3c2[nH]c2ccccc23)C1 (stereo not shown) [Example 66, N^4-Acetyl-4-amino-{2-(10H-indolo[3,2-b]quinoline-11-carboxamide)acetyl}prolinyl-4-aminoprolinyl-4-aminoprolinyl-4-amino-{2-(acridine-9-carboxamide)acetyl}prolinyl-4-aminoprolinyl-4-aminoprolinyl-4-amino-[(2-phenyl-quinoline-4-carboxamide)acetyl]prolinamide] |  |  |  | 
5 | 265 | 451 | CC(=O)NC1CC(C(=O)NC2CC(C(=O)NC3CC(C(=O)NC4CC(C(=O)NC5CC(C(=O)NC6CC(C(=O)NC7CC(C(N)=O)N(C(=O)CNC(=O)c8c9ccccc9nc9c8[nH]c8ccccc89)C7)N(C(C)=O)C6)N(C(C)=O)C5)N(C(=O)CNC(=O)c5cc(-c6ccccc6)nc6ccccc56)C4)N(C(C)=O)C3)N(C(C)=O)C2)N(C(=O)CNC(=O)c2c3ccccc3nc3ccccc23)C1 (stereo not shown) [Example 67] |  |  |  | 
6 | 360 | 435 | CC(=O)N[C@@H](CCCNC(=O)CNC(=O)c1c2ccccc2nc2ccccc12)C(=O)N[C@@H](CCCNC(=O)CNC(=O)c1c2ccccc2nc2ccccc12)C(=O)N[C@@H](CCCNC(=O)CNC(=O)c1c2ccccc2nc2ccccc12)C(N)=O [Example 68, N^4-Acetyl-5-N-{2-(acridine-9-carboxamide)acetyl}ornithinyl-5-N-{2-(acridine-9-carboxamide)acetyl}ornithinyl-5-N-{2-(acridine-9-carboxamide)acetyl}ornithinamide] |  |  |  | 
7 | 357 | 441 | CC(=O)N[C@@H](CCCNC(=O)CNC(=O)c1c2ccccc2nc2ccccc12)C(=O)N[C@@H](CCCNC(=O)CNC(=O)c1c2ccccc2nc2c1[nH]c1ccccc12)C(=O)N[C@@H](CCCNC(=O)CNC(=O)c1c2ccccc2nc2ccccc12)C(N)=O [Example 69, N^4-Acetyl-5-N-{2-(acridine-9-carboxamide)acetyl}ornithinyl-5-N-{2-(10H-indolo[3,2-b]quinoline-11-carboxamide)acetyl}ornithinyl-5-N-{2-(acridine-9-carboxamide)acetyl}ornithinamide] |  |  |  | 
8 | 248 |  | CC(=O)N[C@@H](CCCNC(=O)CNC(=O)c1c2ccccc2nc2ccccc12)C(=O)N[C@@H](CCCNC(=O)CNC(=O)c1c2ccccc2nc2c1[nH]c1ccccc12)C(=O)N[C@@H](CCCNC(=O)CNC(=O)c1c2ccccc2nc2c1[nH]c1ccccc12)C(N)=O [Example 70, N^4-Acetyl-5-N-{2-(acridine-9-carboxamide)acetyl}ornithinyl-5-N-{2-(10H-indolo[3,2-b]quinoline-11-carboxamide)acetyl}ornithinyl-5-N-{2-(10H-indolo[3,2-b]quinoline-11-carboxamide)acetyl}ornithinamide] |  |  |  | 
9 | 338 | 466 | CC(=O)N[C@@H](CCCNC(=O)CNC(=O)c1c2ccccc2nc2c1[nH]c1ccccc12)C(=O)N[C@@H](CCCNC(=O)CNC(=O)c1c2ccccc2nc2c1[nH]c1ccccc12)C(=O)N[C@@H](CCCNC(=O)CNC(=O)c1c2ccccc2nc2c1[nH]c1ccccc12)C(N)=O [Example 71, N^4-Acetyl-5-N-{2-(10H-indolo[3,2-b]quinoline-11-carboxamide)acetyl}ornithinyl-5-N-{2-(10H-indolo[3,2-b]quinoline-11-carboxamide)acetyl}ornithinyl-5-N-{2-(10H-indolo[3,2-b]quinoline-11-carboxamide)acetyl}ornithinamide] |  |  |  | 
10 |  |  | TTCCGGAA-p-Act-p-Pht: oligonucleotide 5′-TTCCGGAA-3′ carrying dimer Act-p-Pht at the 3′-end (DNA TTCCGGAA-{code p-Act-code p-Pht}; not fully specified; cysteine pairing not given here; reading uncertain; also: DNA oligonucleotide with 3'-Act-p-Pht dimer) | 440 | 336 | 43 | +8 °C
11 |  |  | TTCCGGAA-p-Act-p-Qut-p-Nct: oligonucleotide 5′-TTCCGGAA-3′ carrying trimer Act-p-Qut-p-Nct at the 3′-end (DNA TTCCGGAA-{code p-Act-code p-Qut-code p-Nct}; not fully specified; cysteine pairing not given here; reading uncertain; also: DNA oligonucleotide with 3'-Act-p-Qut-p-Nct trimer) |  |  | 60 | +25 °C
12 |  |  | TTCCGGAA-p-Act-p-Qut-p-Qut: oligonucleotide 5′-TTCCGGAA-3′ carrying trimer Act-p-Qut-p-Qut at the 3′-end (DNA TTCCGGAA-{code p-Act-code p-Qut-code p-Qut}; not fully specified; cysteine pairing not given here; reading uncertain; also: DNA oligonucleotide with 3'-Act-p-Qut-p-Qut trimer) | 436 | 352 | 44 | +9 °C
13 |  |  | TTCCGGAA-p-Act-p-Qut: oligonucleotide 5′-TTCCGGAA-3′ carrying dimer Act-p-Qut at the 3′-end (DNA TTCCGGAA-{code p-Act-code p-Qut}; not fully specified; cysteine pairing not given here; reading uncertain; also: DNA oligonucleotide with 3'-Act-p-Qut dimer) | 485 | 351 | 44 | +9 °C
14 |  |  | TTCCGGAA-p-Act: oligonucleotide 5′-TTCCGGAA-3′ carrying fluorophore Act at the 3′-end (DNA TTCCGGAA-{code p-Act}; not fully specified; cysteine pairing not given here; reading uncertain; also: DNA oligonucleotide with 3'-phosphate-linked Act) |  |  | 47 | +12 °C
15 |  |  | TTCCGGAA-p-Agt: oligonucleotide 5′-TTCCGGAA-3′ carrying fluorophore Agt at the 3′-end (DNA TTCCGGAA-{code p-Agt}; not fully specified; cysteine pairing not given here; reading uncertain; also: DNA oligonucleotide with 3'-phosphate-linked Agt) |  |  | 47 | +12 °C
16 |  |  | TTCCGGAA-p-Pht: oligonucleotide 5′-TTCCGGAA-3′ carrying fluorophore Pht at the 3′-end (DNA TTCCGGAA-{code p-Pht}; not fully specified; cysteine pairing not given here; reading uncertain; also: DNA oligonucleotide with 3'-phosphate-linked Pht) |  |  | 41 | +6 °C
